Results: patent US6699837

Experiments:
[1] = molecular target: HGF receptor (c-met) on human cell lines of the central nervous system (T98G glioblastoma, GOTO and SCCH-26 neuroblastoma) (human) (UniProt P08581); test: ^125I-HGF binding on T98G, GOTO and SCCH-26 cells, Scatchard analysis (range told of the three cell lines)
[2] = molecular target: HGF receptor (c-met) on human cell lines of the central nervous system (T98G glioblastoma, GOTO and SCCH-26 neuroblastoma) (human) (UniProt P08581); test: ^125I-HGF saturation binding on SCCH-26 cells, Scatchard analysis
[3] = molecular target: HGF receptor (c-met) on human cell lines of the central nervous system (T98G glioblastoma, GOTO and SCCH-26 neuroblastoma) (human) (UniProt P08581); test: ^125I-HGF saturation binding on T98G cells, Scatchard analysis
[4] = molecular target: HGF receptor (c-met) on human cell lines of the central nervous system (T98G glioblastoma, GOTO and SCCH-26 neuroblastoma) (human) (UniProt P08581); test: ^125I-HGF saturation binding on GOTO cells, Scatchard analysis

Chain of Human recombinant HGF (hepatocyte growth factor), radioiodinated (^125I-HGF) (P14210 32-728 limits assumed): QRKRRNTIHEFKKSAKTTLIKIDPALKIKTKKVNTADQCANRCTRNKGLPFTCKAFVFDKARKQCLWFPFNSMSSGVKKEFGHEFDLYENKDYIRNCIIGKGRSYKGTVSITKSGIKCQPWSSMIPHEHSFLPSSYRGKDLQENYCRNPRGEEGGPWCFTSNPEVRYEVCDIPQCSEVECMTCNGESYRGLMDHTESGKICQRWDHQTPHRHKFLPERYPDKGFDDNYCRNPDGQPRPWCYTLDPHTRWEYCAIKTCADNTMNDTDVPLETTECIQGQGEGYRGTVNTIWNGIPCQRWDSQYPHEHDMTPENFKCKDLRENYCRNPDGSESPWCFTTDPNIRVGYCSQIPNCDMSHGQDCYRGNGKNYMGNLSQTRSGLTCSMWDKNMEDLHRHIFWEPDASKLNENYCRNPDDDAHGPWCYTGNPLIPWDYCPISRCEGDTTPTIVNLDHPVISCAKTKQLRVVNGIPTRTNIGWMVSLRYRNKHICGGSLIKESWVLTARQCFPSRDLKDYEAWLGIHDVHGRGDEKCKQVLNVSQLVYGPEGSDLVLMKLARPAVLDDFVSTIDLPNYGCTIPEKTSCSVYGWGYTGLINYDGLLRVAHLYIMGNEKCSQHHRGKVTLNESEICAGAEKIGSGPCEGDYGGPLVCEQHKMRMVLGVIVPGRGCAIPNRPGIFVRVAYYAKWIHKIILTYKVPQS

Kd [1]: 0.03 to 0.04 nM
B max (sites/cell) [2]: 60 sites/cell
Kd [2]: 0.02 nM
B max (sites/cell) [3]: 540 sites/cell
Kd [3]: 0.031 nM
B max (sites/cell) [4]: 120 sites/cell
Kd [4]: 0.03 nM
Substance: Human recombinant HGF (hepatocyte growth factor), radioiodinated (^125I-HGF) (from UniProt P14210 32-728) (ligand)
